Reference: patent publication US20150160214A1, “Quantitation of Cellular Adhesion Dynamics Across Immobilized Receptors Under Rheological Shear Flow” (Mayo Foundation for Medical Education and Research, priority 2013, published 2015)
“Also recorded” adds a separate entry of the source. Each block holds one molecule with its values, some of them ahead of it.

Tests used:
[1] = Irreversible thermal denaturation by CD, intrinsic fluorescence and ANS fluorescence (Example 2); format: physicochemical
Procedure: The unfolding of disulfide-intact A1 and RCAM A1 was also monitored via CD at 222 nm, intrinsic protein fluorescence at 280 nm/359 nm and ANS fluorescence at 350 nm/495 nm as a function of temperature.
CD thermalscans were recorded between 10 and 95° Celsius at 222 nm with a protein concentration of 1 μM in a 1 cm quartz cell under moderate stirring. Prior to each measurement protein samples were equilibrated at 10° Celsius for 10-15 min in order to obtain a stable baseline. The scanrate for all Thermalscans was 2° Celsius/min. The integration time for each data point was 20 s, the bandwidth 1 nm. All measured CD data were converted into mean molar ellipticities per amino acid residue.
Thermalscans monitoring protein fluorescence were recorded at an emission wavelength of 359 nm after excitation at 280 nm using a protein concentration of 2 μM in a 1 cm quartz cell under moderate stirring. ANS-Thermalscans were recorded at 495 nm after Excitation at 350 nm using 1 μM protein and 100 μM ANS. Prior to any performed thermalscan samples were equilibrated for 10-15 min. The scanrate was 2° Celsius/min. At each temperature between 10 or 20° Celsius and 95° Celsius relative fluorescence intensity was collected for 4 s and averaged.

[2] = GdnHCl- and urea-induced unfolding at 25° C. by circular dichroism (Example 2); format: physicochemical; conditions: GdnHCl, CD
Procedure: The thermodynamic stability of A1 and of RCAM A1 was determined from GdnHCl and urea induced unfolding measured via CD and FL at 25° Celsius (FIG. 14). […] Complete unfolding of A1 and of RCAM A1 occurs in GdnHCl but not in urea. However, in presence of urea, a small expansion of RCAM A1 compared to A1 in its intermediate state is observed.
(§1) Urea and GdnHCl induced unfolding of A1 and of RCAM A1 at 25° Celsius was monitored via CD at 222 nm on an Aviv Biomedical Model 420C circular dichroism spectrometer. A 1 mm quartz cuvette and protein concentrations of 5 or 10 μM were used. Samples were equilibrated in their urea or GdnHCl containing buffer at 25° Celsius overnight. CD-signal was averaged for 5 to 10 min using an integration time of 1 s. CD-spectra were measured at 20° Celsius using 0.1 or 1 mm quartz cells with a step width of 1 nm between 190 and 260 nm with an integration time of 20 s and a bandwidth of 1 nm. CD-spectra in the near UV range (260-360 nm) were recorded using a 5 cm quartz cell with a 120 s integration time. Transition curves and protein spectra were corrected for the CD Signal of the corresponding buffer.

Solubility (observation) = format: physicochemical
[3] = Acrylamide quenching of tryptophan fluorescence (Stern-Volmer); format: physicochemical; conditions: buffer, 20° Celsius
Procedure: This was also confirmed via acrylamide induced tryotophan fluorescence quenching performed with an excitation wavelength of 295 nm.
Initially a quenching determination was performed with disulfide-intact A1 at 20° Celsius and at 1° Celsius in order to distinguish between static and collisional quenching. […] Clear evidence for collisional quenching could be obtained for the A1-domain since the Stern-Volmer constant decreased from 2.6±0.03 to 2.2±0.03 M−1, FIG. 16A, ruling out a static quenching mechanism.
Acrylamide quenching of tryptophan was performed using an excitation wavelength of 295 nm. After the addition of a certain amount of buffered acrylamide solution the protein solution was equilibrated for ˜5 min and then a fluorescence spectrum between 320 and 400 nm was recorded. Stern-Volmer constants were determined from the fluorescence intensity at 359 nm using the Stern-Volmer equation as described by Lakowicz (Lakowicz:2006)
where KD is the Stern-Volmer quenching constant and KD-1 is the concentration of acrylamide at which F0/F=2 and 50% of the fluorescence intensity is quenched.

[4] = Secondary structure contribution calculated from CD-spectra (CDNN); format: physicochemical; conditions: calculated from CD-spectra, CDNN
Procedure: Fluorescence and circular dichroism spectra of A1 and of RCAM A1 were measured to compare the basic spectroscopic properties of the two protein variants (FIG. 13). The fluorescence spectrum of native A1 has a relatively low intensity with λmax of ˜345 nm. In presence of 2 M GdnHCl the fluorescence intensity increases as the interior of the protein becomes solvent accessible and a red shift of the spectrum to ˜351 nm occurs. […] Nevertheless, RCAM A1 is still retains significant secondary structure content in solution; the distribution of which is summarized in Table 1. In the near UV, the CD of disulfide-intact A1 show a well-defined spectral banding pattern between 260 and 300 nm indicating significant tertiary structure content that is absent in RCAM A1.
as §1

platelet GPIbα = molecular target: T1, platelet GPIbα (Homo sapiens, UniProt P07359); test: Platelet adhesion to surface captured disulfide-intact A1 and RCAM A1 under shear flow (Example 2); format: cell-based
T1 construct: endogenous in cells; host or cells: platelets in citrated whole blood of normal healthy volunteer donors
Procedure: The interaction of disulfide-intact A1 and of RCAM A1 with platelets was studied by immobilizing the proteins via the 6×His-Tag on Cellix biochips in which the internal channel surface was coated with a Cu2+ chelating chemistry. A 5 μM concentration of protein was immobilized in the biochip and citrated whole blood was perfused at a shear rate of 800 s−1 (FIG. 11B). This perfusion was followed by TBS buffer and after red blood cells cleared the channel, the shear was decremented to 100 s−1 or incremented to 9000 s−1 every two minutes at logarithmic intervals. Surface bound platelets were allowed to equilibrate at a given shear rate for 50 s and a 60 s video at 24 frames per second was recorded and analyzed as described in the methods. The internal channel surface lacking immobilized A1 domain was completely inert to platelets.
At each shear rate, platelet mean pause times and mean translocation velocities were calculated from the X-Y trajectories of moving platelets as described in the methods. Approximately 1000 platelet trajectories were analyzed at each shear rate (FIGS. 11B to 11D). The mean pause times were also calculated from the pause time survival fraction obtained from the cumulative integral of the pause time distribution (FIG. 11B) (Thomas:2006). The survival fraction exponentially decreases with faster decay rates as shear increases. Fitting the survival fraction with a bi-exponential decay function results in the apparent rate constants and amplitudes as a function of shear rate (FIG. 11C).
The determination and analysis of platelet pause times and instantaneous translocation velocities over surface captured A1 and RCAM A1 was performed as previously described (Tischer:2013). Here, the inventor used the Cellix Mims Evo syringe pump controlled by VenaFluxAssay (www.cellixltd.com). Vena8™ CGS biochips were custom designed with 800 μm width by 80 μm height microchannels bonded to glass slides with a Cu^2+ chelated PEG surface serviced by Microsurfaces Inc. (www.proteinslides.com/histag.html) to which the A1 and RCAM A1 in TBS were captured by the 6×His-Tag at a total concentration of 5 μM. Citrated whole blood was obtained from the informed consent of healthy volunteer donors with approval from the Mayo Clinic Institutional Review Board and 100 μL was perfused over the surface captured A1 domains at […]. The shear was increased or decreased in a stepwise manner to measure the dynamics of platelet adhesion at high and low shear. After allowing the flow chamber to equilibrate for 50 s at each shear rate, 1 min movies were recorded at 24 frames per second in phase contrast at 200× magnification with 2×2 pixel binning on a Zeiss AxioCam Mrm camera (6.45 μm/px) attached to a Zeiss Axio Observer.D1 inverted microscope. Tracking analysis was performed using MediaCybernetics ImagePro® Premier (www.mediacy.com/index.aspx?page=IP\_Premier) The distance travelled in the direction of flow was calculated from the coordinate data for each platelet as a function of time using √{square root over ((xt−x0)^2)}, where x0 is the coordinates of a platelet on the first frame of the movie and xt is the coordinate on subsequent frames of the movie. These trajectories were differentiated into instantaneous velocities using a Savitzky-Golay algorithm (Savitzky:1964) with a five data point window size and a second order polynomial implemented into a Mathematica (www.wolfram.com/mathematica) notebook written in our lab. Trajectories were retained for statistical analysis if the platelet was present for ≧1 s and travelled a total distance greater than 1 Distance travelled in pixels (px) was converted to (μm) using 6.45 μm/px*2/200=0.0645 μm/px. Pause times were determined by the amount of time (sec) a platelets velocity was 0±4 px/s≅0±0.23 μm/s, within the noise. Data are reported as mean velocities and pause times attained by individual platelets averaged over all platelets analyzed. […]

[5] = molecular target: T2, Recombinant human vWF A1-1261 (amino acids D1261-P1471), N-terminal truncated variant (human, UniProt P04275 1261-1471); test: thermal unfolding by Trp fluorescence at 2 °C/min; value at saturating peptide
T2 construct: Lacks the linker residues Q1238-E1260; also called truncated A1
Excerpt: (§2) The only way to examine such a stabilization using spectroscopy was the measurement of thermal unfolding via fluorescence. Since the N-terminal peptide also contains a single tyrosine residue, the excitation wavelength was changed to λ=295 nm in order to measure tryptophan fluorescence and the effect of the peptide on the unfolding of the A1-domain was observed indirectly. […] Thermal scans were also done in the presence of a peptide with the same amino acid composition, but a scrambled sequence. The inset of FIG. 7A compares the raw fluorescence thermal scans in the presence of 300 μM scrambled and N-terminal peptides. Unfolding in the presence of excess scrambled peptide was equivalent to unfolding in the absence of either peptide. […] Fitting the enthalpy data to a simple single site binding model yields a dissociation constant of ≈46±6 μM.

[6] = molecular target: T2, Recombinant human vWF A1-1261 (amino …); test: thermal unfolding by Trp fluorescence, 0.02-300 µM peptide; value at saturating peptide
Excerpt: as §2

[7] = molecular target: T2, Recombinant human vWF A1-1261 (amino …); test: thermal unfolding by Trp fluorescence at 2 °C/min; value without peptide
Excerpt: as §2

[8] = molecular target: T2, Recombinant human vWF A1-1261 (amino …); test: thermal unfolding by Trp fluorescence, 0.02-300 µM peptide; value without peptide
Excerpt: as §2

[9] = molecular target: T2, Recombinant human vWF A1-1261 (amino …); test: unfolding enthalpy from fluorescence thermal scans of 2 µM A1-1261 against total peptide concentration
Excerpt: as §2

[10] = molecular target: T2, Recombinant human vWF A1-1261 (amino …); test: thermal unfolding enthalpy of 2 µM A1-1261 (Trp fluorescence) against peptide concentration, single site binding model
Excerpt: as §2

[11] = molecular target: T3, Recombinant human vWF A1-1238 (amino acids Q1238-P1471) (human, UniProt P04275 1238-1471); test: unfolding enthalpy from fluorescence thermal scans of A1-1238 against total peptide concentration
T3 construct: captured on Cu2+ chelate surfaces by the His tag in the flow chamber assays; also called WT A1; disulfide-intact A1; not shown: N-terminal 6xHis-Tag from the Qiagen pQE-9 vector

Total number of platelets interacting, relative to disulfide-intact A1 (platelet GPIbα): less, by approximately half | Velocity of a platelet translocating on the domain (platelet GPIbα; 1025 s−1): statistically zero
Molecule: RCAM A1: vWF A1 domain (Q1238-P1471) with disulfide bond reduced and carboxyamidated; molten globule model of intermediate state
Cooperative thermal unfolding transition ([1]; CD, intrinsic fluorescence and ANS fluorescence): absent | Temperature at which protein aggregation begins in thermal scan ([1]; absence of urea): ~40 ° Celsius | cm, I ⇄ D [2]: 3.83 ± 0.03 M | m-value, I ⇄ D [2]: −7.49 ± 0.49 kJ/mol/M | ΔG^0, I ⇄ D [2]: 6.857 ± 0.452 kcal/mol | Solubility (Solubility (observation)): low solubility | Stern-Volmer constant [3]: 5.6 ± 0.4 M⁻¹ | % α-Helix [4]: 25% | % β-sheet [4]: 22% | Platelet translocation on surface-immobilized domain (platelet GPIbα; all applied shear rates, up to 9000 s−1): did not translocate across the surface at all applied shear rates; also recorded: firm adhesion with no platelet translocation

unfolding enthalpy of A1-1261 without and with saturating peptide [6]: 57.8 kcal/mol | unfolding enthalpy of A1-1261 without and with saturating peptide [8]: 47.1 kcal/mol | EC50 (read off the curve) [9]: ~30 µM | Kd [10]: ~46 µM | binding result [11]: no binding (tested: 100 µM)
B1: N-terminal peptide (QEPGGLVVPPTDAPVSPTTLYVE) corresponding to vWF residues Q1238-E1260 (peptide)
peptide: H-QEPGGLVVPPTDAPVSPTTLYVE-OH
notes: Synthetic peptide; also called free N-terminal peptide; N-terminal linker peptide
apparent TM of A1-1261 without and with saturating peptide [5]: 55.5 ° Celsius | apparent TM of A1-1261 without and with saturating peptide [7]: 53 ° Celsius
